Source: article PMC5986797, “Laminin heparin-binding peptides bind to several growth factors and enhance diabetic wound healing” (Nature Communications, 2018)

Experiments:
[1] = system: recombinant human laminin isoforms (–111, –211, –332, –411, –421, –511, and –521); experiment: ELISA: binding of full-length laminin isoforms to absorbed GFs and CXCL chemokines; conditions: 50 nM GF coated, 10 nM laminin; signals greater than 0.1 indicate binding; n = 4
Experimental: Ninety-six-well ELISA plates (med-binding, Greiner Bio-One) were coated with 50 nM GFs in 100 µL/well of phosphate-buffered saline (PBS) at 37 °C for more than 2 h. After blocking with 2% BSA solution containing PBS and 0.05% Tween 20 (PBS-T), 10 nM recombinant human laminin isoforms (–111, –211, –332, –411, –421, –511, and –521) (>95% purity tested by SDS-PAGE, BioLamina) in 100 µL/well PBS were added. Bound laminin was detected with 100 µL/well rabbit anti-human LAMC1 polyclonal antibody (Assay Biotech, Catalog No. C13072, 1:1000 dilution in PBS) or rabbit anti-human LAMA3 polyclonal antibody (Assay Biotech, Catalog No. C13066, 1:1000 dilution in PBS). After incubation with biotinylated anti-rabbit antibody for 60 min at room temperature (RT), HRP-conjugated streptavidin (Jackson ImmunoResearch) was added. After 60 min of incubation at RT, 50 μL of TMB substrate (Sigma-Aldrich) was added. The reactions were stopped by adding 25 μL of 2 N H2SO4. Subsequently, the absorbance at 450 nm was measured with a reference of 570 nm.

[2] = system: VEGF-A165; experiment: ELISA: VEGF-A165 binding to laminin LG domain / laminin peptide; design: species or system human; conditions: 1 µg/mL LG domain coated; 1 μg/mL GF; vs BSA-coated wells; n = 4
Experimental: ELISA tests were performed as described above. In brief, […] recombinant protein, laminin alpha 4 LG domain recombinant protein (R&D Systems), laminin alpha 5 LG domain recombinant protein (LD BioPharma), or laminin peptide (sequences are described in Supplementary Table 1, chemically synthesized by Genscript) in PBS for 2 h at 37 °C. A concentration of 1 μg/mL of BSA served as non-binding protein control. After blocking with 2% BSA PBS-0.05% Tween 20 (PBS-T) solution, 1 μg/mL of the recombinant human proteins (VEGF-A121, VEGF-A165, PlGF-1, PlGF-2, PDGF-BB, or FGF-2) or 10 μg/mL of biotinylated heparin (Sigma-Aldrich) were added. Bound GF was detected with biotinylated antibodies for human VEGF-A, PlGF, PDGF-BB (R&D Systems, Catalog No. DY220, 1:180 dilution), or FGF-2 (R&D Systems). The antibodies were detected by streptavidin-HRP (R&D Systems).

[3] = system: PlGF-2; experiment: ELISA: PlGF-2 binding to laminin LG domain / laminin peptide; design: species or system human; conditions: 1 µg/mL LG domain coated; 1 μg/mL GF; vs BSA-coated wells; n = 4
Experimental: (§1) ELISA tests were performed as described above. In brief, ELISA plates were coated with 1 μg/mL of laminin alpha 3 LG domain recombinant protein, laminin alpha 4 LG domain recombinant protein (R&D Systems), laminin alpha 5 LG domain recombinant protein (LD BioPharma), or laminin peptide (sequences are described in Supplementary Table 1, chemically synthesized by Genscript) in PBS for 2 h at 37 °C. A concentration of 1 μg/mL of BSA served as non-binding protein control. After blocking with 2% BSA PBS-0.05% Tween 20 (PBS-T) solution, 1 μg/mL of the recombinant human proteins (VEGF-A121, VEGF-A165, PlGF-1, PlGF-2, PDGF-BB, or FGF-2) or 10 μg/mL of biotinylated heparin (Sigma-Aldrich) were added. Bound GF was detected with biotinylated antibodies for human VEGF-A, PlGF, PDGF-BB (R&D Systems, Catalog No. DY220, 1:180 dilution), or FGF-2 (R&D Systems). The antibodies were detected by streptavidin-HRP (R&D Systems).

[4] = system: PlGF-1; experiment: ELISA: PlGF-1 binding to laminin LG domain / laminin peptide; design: species or system human; conditions: 1 µg/mL LG domain coated; 1 μg/mL GF; vs BSA-coated wells; n = 4
Experimental: as §1

[5] = system: PDGF-BB; experiment: ELISA: PDGF-BB binding to laminin LG domain / laminin peptide; design: species or system human; conditions: 1 µg/mL LG domain coated; 1 μg/mL GF; vs BSA-coated wells; n = 4
Experimental: as §1

[6] = system: FGF-2; experiment: ELISA: FGF-2 binding to laminin LG domain / laminin peptide; design: species or system human; conditions: 1 µg/mL LG domain coated; 1 μg/mL GF; vs BSA-coated wells; n = 4
Experimental: as §1

[7] = system: VEGF-A121; experiment: ELISA: VEGF-A121 binding to laminin LG domain / laminin peptide; design: species or system human; conditions: 1 µg/mL LG domain coated; 1 μg/mL GF; vs BSA-coated wells; n = 4
Experimental: as §1

B1: PDGF-CC: platelet-derived growth factor, PeproTech (protein)
chain: VVDLNLLTEEVRLYSCTPRNFSVSIREELKRTDTIFWPGCLLVKRCGGNCACCLHNCNECQCVPSKVTKKYHEVLQLRPKTGVRGLHKSLTDVALEHHEECDCVCRGSTGG
[1]
  binding to all tested laminin isoforms (ELISA, A450 nm): bound

B2: BDNF: brain-derived neurotrophic factor, PeproTech (protein, UniProt P23560 19-247, looked up)
Neurotrophic factor BDNF …: APMKEANIRGQGGLAYPGVRTHGTLESVNGPKAGSRGLTSLADTFEHVIEELLDEDQKVRPNEENNKDADLYTSRVMLSSQVPLEPPLLFLLEEYKNYLDAANMSMRVRRHSDPARRGELSVCDSISEWVTAADKKTAVDMSGGTVTVLEKVPVSKGQLKQYFYETKCNPMGYTKEGCRGIDKRHWNSQCRTTQSYVRALTMDSKKRIGWRFIRIDTSCVCTLTIKRGR
[1]
  binding to all tested laminin isoforms (ELISA, A450 nm): strong binding

B3: BMP-3: bone morphogenetic protein, PeproTech (protein)
chain: QWIEPRNCARRYLKVDFADIGWSEWIISPKSFDAYYCSGACQFPMPKSLKPSNHATIQSIVRAVGVVPGIPEPCCVPEKMSSLSILFFDENKNVVLKVYPNMTVESCACR
[1]
  binding to all tested laminin isoforms (ELISA, A450 nm): showed binding

B4: PlGF-1: placental growth factor, PeproTech (protein)
chain: LPAVPPQQWALSAGNGSSEVEVVPFQEVWGRSYCRALERLVDVVSEYPSEVEHMFSPSCVSLLRCTGCCGDENLHCVPVETANVTMQLLKIRSGDRPSYVELTFSQHVRCECRPLREKMKPERCGDAVPRR
[1]
  binding to all tested laminin isoforms (ELISA, A450 nm): did not show binding

B5: PlGF-2: placental growth factor (PlGF)-2, PeproTech (protein)
chain: LPAVPPQQWALSAGNGSSEVEVVPFQEVWGRSYCRALERLVDVVSEYPSEVEHMFSPSCVSLLRCTGCCGDENLHCVPVETANVTMQLLKIRSGDRPSYVELTFSQHVRCECRPLREKMKPERRRPKGRGKRRREKQRPTDCHLCGDAVPRR
[1]
  binding to all tested laminin isoforms (ELISA, A450 nm): bound

B6: FGF-6: fibroblast growth factor, PeproTech (protein)
chain: SPAGTRANNTLLDSRGWGTLLSRSRAGLAGEIAGVNWESGYLVGIKRQRRLYCNVGIGFHLQVLPDGRISGTHEENPYSLLEISTVERGVVSLFGVRSALFVAMNSKGRLYATPSFQEECKFRETLLPNNYNAYESDLYQGTYIALSKYGRVKRGSKVSPIMTVTHFLPRI
[1]
  binding to all tested laminin isoforms (ELISA, A450 nm): did not

B7: LAMA4_826–1816: laminin alpha 4 LG domain recombinant protein (R&D Systems) (protein)
chain: RSVASKIQVSMMFDGQSAVEVHSRTSMDDLKAFTSLSLYMKPPVKRPELTETADQFILYLGSKNAKKEYMGLAIKNDNLVYVYNLGTKDVEIPLDSKPVSSWPAYFSIVKIERVGKHGKVFLTVPSLSSTAEEKFIKKGEFSGDDSLLDLDPEDTVFYVGGVPSNFKLPTSLNLPGFVGCLELATLNNDVISLYNFKHIYNMDPSTSVPCARDKLAFTQSRAASYFFDGSGYAVVRDITRRGKFGQVTRFDIEVRTPADNGLILLMVNGSMFFRLEMRNGYLHVFYDFGFSGGPVHLEDTLKKAQINDAKYHEISIIYHNDKKMILVVDRRHVKSMDNEKMKIPFTDIYIGGAPPEILQSRALRAHLPLDINFRGCMKGFQFQKKDFNLLEQTETLGVGYGCPEDSLISRRAYFNGQSFIASIQKISFFDGFEGGFNFRTLQPNGLLFYYASGSDVFSISLDNGTVIMDVKGIKVQSVDKQYNDGLSHFVISSVSPTRYELIVDKSRVGSKNPTKGKIEQTQASEKKFYFGGSPISAQYANFTGCISNAYFTRVDRDVEVEDFQRYTEKVHTSLYECPIESSPLFLLHKKGKNLSKPKASQNKKGGKSKDAPSWDPVALKLPERNTPRNSHCHLSNSPRAIEHAYQYGGTANSRQEFEHLKGDFGAKSQFSIRLRTRSSHGMIFYVSDQEENDFMTLFLAHGRLVYMFNVGHKKLKIRSQEKYNDGLWHDVIFIRERSSGRLVIDGLRVLEESLPPTEATWKIKGPIYLGGVAPGKAVKNVQINSIYSFSGCLSNLQLNGASITSASQTFSVTPCFEGPMETGTYFSTEGGYVVLDESFNIGLKFEIAFEVRPRSSSGTLVHGHSVNGEYLNVHMKNGQVIVKVNNGIRDFSTSVTPKQSLCDGRWHRITVIRDSNVVQLDVDSEVNHVVGPLNPKPIDHREPVFVGGVPESLLTPRLAPSKPFTGCIRHFVIDGHPVSFSKAALVSGAVS
[2]
  binding to VEGF-A165 (ELISA), recombinant LG domains: bound
[3]
  binding to PlGF-2 (ELISA), recombinant LG domains: bound
[4]
  binding to PlGF-1 (ELISA), recombinant LG domains: did not show any binding
[5]
  binding to PDGF-BB (ELISA), recombinant LG domains: bound
[6]
  binding to FGF-2 (ELISA), recombinant LG domains: bound
[7]
  binding to VEGF-A121 (ELISA), recombinant LG domains: did not show any binding

B8: BMP-7: bone morphogenetic protein, PeproTech, produced in eukaryotic cells (protein)
chain: STGSKQRSQNRSKTPKNQEALRMANVAENSSSDQRQACKKHELYVSFRDLGWQDWIIAPEGYAAYYCEGECAFPLNSYMNATNHAIVQTLVHFINPETVPKPCCAPTQLNAISVLYFDDSSNVILKKYRNMVVRACGCH
[1]
  binding to all tested laminin isoforms (ELISA, A450 nm): not

B9: LAMA3_2928–3150: recombinant human LAMA3 LG domain Ser2928-Cys3150 (linker domain and LG4 domain), 6 His, HEK-293F (protein)
chain: SLNKPPFLMLLKGSTRFNKTKTFRINQLLQDTPVASPRSVKVWQDACSPLPKTQANHGALQFGDIPTSHLLFKLPQELLKPRSQFAVDMQTTSSRGLVFHTGTKNSFMALYLSKGRLVFALGTDGKKLRIKSKEKCNDGKWHTVVFGHDGEKGRLVVDGLRAREGSLPGNSTISIRAPVYLGSPPSGKPKSLPTNSFVGCLKNFQLDSKPLYTPSSSFGVSSC
modifications: left off: His6, N-terminal, state not stated
notes: recombinant human LAMA3 LG domain Ser2928-Cys3150 (linker domain and LG4 domain), 6 His, HEK-293F
[2]
  binding to VEGF-A165 (ELISA), recombinant LG domains: bound
[3]
  binding to PlGF-2 (ELISA), recombinant LG domains: bound
[4]
  binding to PlGF-1 (ELISA), recombinant LG domains: did not show any binding
[5]
  binding to PDGF-BB (ELISA), recombinant LG domains: bound
[6]
  binding to FGF-2 (ELISA), recombinant LG domains: bound
[7]
  binding to VEGF-A121 (ELISA), recombinant LG domains: did not show any binding

B10: FGF-7: fibroblast growth factor, PeproTech (protein)
chain: CNDMTPEQMATNVNCSSPERHTRSYDYMEGGDIRVRRLFCRTQWYLRIDKRGKVKGTQEMKNNYNIMEIRTVAVGIVAIKGVESEFYLAMNKEGKLYAKKECNEDCNFKELILENHYNTYASAKWTHNGGEMFVALNQKGIPVRGKKTKKEQKTAHFLPMAIT
[1]
  binding to all tested laminin isoforms (ELISA, A450 nm): bound

B11: FGF-10: fibroblast growth factor, PeproTech (protein)
chain: QALGQDMVSPEATNSSSSSFSSPSSAGRHVRSYNHLQGDVRWRKLFSFTKYFLKIEKNGKVSGTKKENCPYSILEITSVEIGVVAVKAINSNYYLAMNKKGKLYGSKEFNNDCKLKERIEENGYNTYASFNWQHNGRQMYVALNGKGAPRRGQKTRRKNTSAHFLPMVVHS
[1]
  binding to all tested laminin isoforms (ELISA, A450 nm): bound
